Target: Paf1(57–392) (human, UniProt Q8N7H5 57-392)
Test: SEC

B1: Leo1(277–562) (domain or fragment)
chain: SDSEDEVLRMKRKNAIASDSEADSDTEVPKDNSGTMDLFGGADDISSGSDGEDKPPTPGQPVDENGLPQDQQEEEPIPETRIEVEIPKVNTDLGNDLYFVKLPNFLSVEPRPFDPQYYEDEFEDEEMLDEEGRTRLKLKVENTIRWRIRRDEEGNEIKESNARIVKWSDGSMSLHLGNEVFDVYKAPLQGDHNHLFIRQGTGLQGQAVFKTKLTFRPHSTDSATHRKMTLSLADRCSKTQKIRILPMAGRDPECQRTEMIKKEEERLRASIRRESQQRRMREKQHQ
With B1 the “stoichiometry N” value was 1.

— PMC3905892 (Nucleic Acids Research, 2013)
